Measured values reported in US12473560 (FLAGSHIP PIONEERING INNOVATIONS VI, dated 2025).
Residue numbers refer to the chain shown, from its start.

B1: AB-1 full-length IgG1 (antibody, V domains shown)
VH: EVQLEESGTVLARPGASVKMSCKASGYTFTTYWMHWIKQRPGQGLEWIGAIYPGNSDTQYNQKFKDKAKLTAVKSTSSAYMELSSLTNEDSAVYFCTREGIPQLLRTLDYWGQGTSVTVSS
VL: DILMTQSPSSLSASLGERVSLTCRASQEISGYLSWLQEKPDGTIKRLIYAASTLDSGVPKRFSGSRSGSDYSLTISSLESEDFADYYCLQYLSYPWTFGGGTKLEIK
B2: AB-3 full-length IgG1 (antibody, V domains shown)
VH: B1 VH with S56G, Q59N, L104K, Y110V
VL: B1 VL
B3: AB-4 full-length IgG1 (antibody, V domains shown)
VH: B1 VH with S56G, Q59N, L108F
VL: B1 VL with S30G
B4: AB-5 full-length IgG1 (antibody, V domains shown)
VH: B1 VH with T31S, S56G, Q59N, R106N, Y110V
VL: B1 VL with L89Q
B5: AB-6 full-length IgG1 (antibody, V domains shown)
VH: B1 VH with T31S, Q59N, L105T
VL: B1 VL
B6: AB-7 full-length IgG1 (antibody, V domains shown)
VH: B1 VH with T31S, Q59N, T107S
VL: B1 VL
B7: AB-8 full-length IgG1 (antibody, V domains shown)
VH: B1 VH with Q59I
VL: B1 VL
B8: AB-9 full-length IgG1 (antibody, V domains shown)
VH: B1 VH with T31S, Q59N, K74T
VL: B1 VL
B9: AB-2 full-length IgG1 (antibody, V domains shown)
VH: B1 VH with S56G, Q59N
VL: B1 VL

Target: soluble G614 HexaPro spike ectodomain (SARS-CoV-2, UniProt P0DTC2 14-1208)

Binder | Kd [nM]
B1 | 0.389
B2 | 2.07
B3 | 1.14
B4 | 2.09
B5 | 0.628
B6 | 2.55
B7 | 1.73
B8 | 1.2
B9 | 1.69
